Data from PMC8298264, “Function of cofactor Akirin2 in the regulation of gene expression in model human neutrophil-like HL60 cells” (Bioscience Reports, 2021).

B1: sp¦P43034¦LIS1_HUMAN (protein, UniProt P43034 1-410, looked up)
Platelet-activating factor …: MVLSQRQRDELNRAIADYLRSNGYEEAYSVFKKEAELDVNEELDKKYAGLLEKKWTSVIRLQKKVMELESKLNEAKEEFTSGGPLGQKRDPKEWIPRPPEKYALSGHRSPVTRVIFHPVFSVMVSASEDATIKVWDYETGDFERTLKGHTDSVQDISFDHSGKLLASCSADMTIKLWDFQGFECIRTMHGHDHNVSSVAIMPNGDHIVSASRDKTIKMWEVQTGYCVKTFTGHREWVRMVRPNQDGTLIASCSNDQTVRVWVVATKECKAELREHEHVVECISWAPESSYSSISEATGSETKKSGKPGPFLLSGSRDKTIKMWDVSTGMCLMTLVGHDNWVRGVLFHSGGKFILSCADDKTLRVWDYKNKRCMKTLNAHEHFVTSLDFHKTAPYVVTGSVDQTVKVWECR
B2: sp¦Q9UIG0¦BAZ1B_HUMAN (protein, UniProt Q9UIG0 1-1483, looked up)
Tyrosine-protein kinase BAZ1B: MAPLLGRKPFPLVKPLPGEEPLFTIPHTQEAFRTREEYEARLERYSERIWTCKSTGSSQLTHKEAWEEEQEVAELLKEEFPAWYEKLVLEMVHHNTASLEKLVDTAWLEIMTKYAVGEECDFEVGKEKMLKVKIVKIHPLEKVDEEATEKKSDGACDSPSSDKENSSQIAQDHQKKETVVKEDEGRRESINDRARRSPRKLPTSLKKGERKWAPPKFLPHKYDVKLQNEDKIISNVPADSLIRTERPPNKEIVRYFIRHNALRAGTGENAPWVVEDELVKKYSLPSKFSDFLLDPYKYMTLNPSTKRKNTGSPDRKPSKKSKTDNSSLSSPLNPKLWCHVHLKKSLSGSPLKVKNSKNSKSPEEHLEEMMKMMSPNKLHTNFHIPKKGPPAKKPGKHSDKPLKAKGRSKGILNGQKSTGNSKSPKKGLKTPKTKMKQMTLLDMAKGTQKMTRAPRNSGGTPRTSSKPHKHLPPAALHLIAYYKENKDREDKRSALSCVISKTARLLSSEDRARLPEELRSLVQKRYELLEHKKRWASMSEEQRKEYLKKKREELKKKLKEKAKERREKEMLERLEKQKRYEDQELTGKNLPAFRLVDTPEGLPNTLFGDVAMVVEFLSCYSGLLLPDAQYPITAVSLMEALSADKGGFLYLNRVLVILLQTLLQDEIAEDYGELGMKLSEIPLTLHSVSELVRLCLRRSDVQEESEGSDTDDNKDSAAFEDNEVQDEFLEKLETSEFFELTSEEKLQILTALCHRILMTYSVQDHMETRQQMSAELWKERLAVLKEENDKKRAEKQKRKEMEAKNKENGKVENGLGKTDRKKEIVKFEPQVDTEAEDMISAVKSRRLLAIQAKKEREIQEREMKVKLERQAEEERIRKHKAAAEKAFQEGIAKAKLVMRRTPIGTDRNHNRYWLFSDEVPGLFIEKGWVHDSIDYRFNHHCKDHTVSGDEDYCPRSKKANLGKNASMNTQHGTATEVAVETTTPKQGQNLWFLCDSQKELDELLNCLHPQGIRESQLKERLEKRYQDIIHSIHLARKPNLGLKSCDGNQELLNFLRSDLIEVATRLQKGGLGYVEETSEFEARVISLEKLKDFGECVIALQASVIKKFLQGFMAPKQKRRKLQSEDSAKTEEVDEEKKMVEEAKVASALEKWKTAIREAQTFSRMHVLLGMLDACIKWDMSAENARCKVCRKKGEDDKLILCDECNKAFHLFCLRPALYEVPDGEWQCPACQPATARRNSRGRNYTEESASEDSEDDESDEEEEEEEEEEEEEDYEVAGLRLRPRKTIRGKHSVIPPAARSGRRPGKKPHSTRRSQPKAPPVDDAEVDELVLQTKRSSRRQSLELQKCEEILHKIVKYRFSWPFREPVTRDEAEDYYDVITHPMDFQTVQNKCSCGSYRSVQEFLTDMKQVFTNAEVYNCRGSHVLSCMVKTEQCLVALLHKHLPGHPYVRRKRKKFPDRLAEDEGDSEPEAVGQSRGRRQKK
B3: sp¦Q8N335¦GPD1L_HUMAN (protein, UniProt Q8N335 1-351, looked up)
Glycerol-3-phosphate …: MAAAPLKVCIVGSGNWGSAVAKIIGNNVKKLQKFASTVKMWVFEETVNGRKLTDIINNDHENVKYLPGHKLPENVVAMSNLSEAVQDADLLVFVIPHQFIHRICDEITGRVPKKALGITLIKGIDEGPEGLKLISDIIREKMGIDISVLMGANIANEVAAEKFCETTIGSKVMENGLLFKELLQTPNFRITVVDDADTVELCGALKNIVAVGAGFCDGLRCGDNTKAAVIRLGLMEMIAFARIFCKGQVSTATFLESCGVADLITTCYGGRNRRVAEAFARTGKTIEELEKEMLNGQKLQGPQTSAEVYRILKQKGLLDKFPLFTAVYQICYESRPVQEMLSCLQSHPEHT
B4: sp¦P40926¦MDHM_HUMAN (protein, UniProt P40926 25-338, looked up)
Malate dehydrogenase, …: AKVAVLGASGGIGQPLSLLLKNSPLVSRLTLYDIAHTPGVAADLSHIETKAAVKGYLGPEQLPDCLKGCDVVVIPAGVPRKPGMTRDDLFNTNATIVATLTAACAQHCPEAMICVIANPVNSTIPITAEVFKKHGVYNPNKIFGVTTLDIVRANTFVAELKGLDPARVNVPVIGGHAGKTIIPLISQCTPKVDFPQDQLTALTGRIQEAGTEVVKAKAGAGSATLSMAYAGARFVFSLVDAMNGKEGVVECSFVKSQETECTYFSTPLLLGKKGIEKNLGIGKVSSFEEKMISDAIPELKASIKKGEDFVKTLK
B5: sp¦P13995¦MTDC_HUMAN (protein, UniProt P13995 36-350, looked up)
Bifunctional …: EAVVISGRKLAQQIKQEVRQEVEEWVASGNKRPHLSVILVGENPASHSYVLNKTRAAAVVGINSETIMKPASISEEELLNLINKLNNDDNVDGLLVQLPLPEHIDERRICNAVSPDKDVDGFHVINVGRMCLDQYSMLPATPWGVWEIIKRTGIPTLGKNVVVAGRSKNVGMPIAMLLHTDGAHERPGGDATVTISHRYTPKEQLKKHTILADIVISAAGIPNLITADMIKEGAAVIDVGINRVHDPVTAKPKLVGDVDFEGVRQKAGYITPVPGGVGPMTVAMLMKNTIIAAKKVLRLEEREVLKSKELGVATN
B6: sp¦O60306¦AQR_HUMAN (protein, UniProt O60306 1-1485, looked up)
RNA helicase aquarius: MAAPAQPKKIVAPTVSQINAEFVTQLACKYWAPHIKKKSPFDIKVIEDIYEKEIVKSRFAIRKIMLLEFSQYLENYLWMNYSPEVSSKAYLMSICCMVNEKFRENVPAWEIFKKKPDHFPFFFKHILKAALAETDGEFSLHEQTVLLLFLDHCFNSLEVDLIRSQVQQLISLPMWMGLQLARLELELKKTPKLRKFWNLIKKNDEKMDPEAREQAYQERRFLSQLIQKFISVLKSVPLSEPVTMDKVHYCERFIELMIDLEALLPTRRWFNTILDDSHLLVHCYLSNLVRREEDGHLFSQLLDMLKFYTGFEINDQTGNALTENEMTTIHYDRITSLQRAAFAHFPELYDFALSNVAEVDTRESLVKFFGPLSSNTLHQVASYLCLLPTLPKNEDTTFDKEFLLELLVSRHERRISQIQQLNQMPLYPTEKIIWDENIVPTEYYSGEGCLALPKLNLQFLTLHDYLLRNFNLFRLESTYEIRQDIEDSVSRMKPWQSEYGGVVFGGWARMAQPIVAFTVVEVAKPNIGENWPTRVRADVTINLNVRDHIKDEWEGLRKHDVCFLITVRPTKPYGTKFDRRRPFIEQVGLVYVRGCEIQGMLDDKGRVIEDGPEPRPNLRGESRTFRVFLDPNQYQQDMTNTIQNGAEDVYETFNIIMRRKPKENNFKAVLETIRNLMNTDCVVPDWLHDIILGYGDPSSAHYSKMPNQIATLDFNDTFLSIEHLKASFPGHNVKVTVEDPALQIPPFRITFPVRSGKGKKRKDADVEDEDTEEAKTLIVEPHVIPNRGPYPYNQPKRNTIQFTHTQIEAIRAGMQPGLTMVVGPPGTGKTDVAVQIISNIYHNFPEQRTLIVTHSNQALNQLFEKIMALDIDERHLLRLGHGEEELETEKDFSRYGRVNYVLARRIELLEEVKRLQKSLGVPGDASYTCETAGYFFLYQVMSRWEEYISKVKNKGSTLPDVTEVSTFFPFHEYFANAPQPIFKGRSYEEDMEIAEGCFRHIKKIFTQLEEFRASELLRSGLDRSKYLLVKEAKIIAMTCTHAALKRHDLVKLGFKYDNILMEEAAQILEIETFIPLLLQNPQDGFSRLKRWIMIGDHHQLPPVIKNMAFQKYSNMEQSLFTRFVRVGVPTVDLDAQGRARASLCNLYNWRYKNLGNLPHVQLLPEFSTANAGLLYDFQLINVEDFQGVGESEPNPYFYQNLGEAEYVVALFMYMCLLGYPADKISILTTYNGQKHLIRDIINRRCGNNPLIGRPNKVTTVDRFQGQQNDYILLSLVRTRAVGHLRDVRRLVVAMSRARLGLYIFARVSLFQNCFELTPAFSQLTARPLHLHIIPTEPFPTTRKNGERPSHEVQIIKNMPQMANFVYNMYMHLIQTTHHYHQTLLQLPPAMVEEGEEVQNQETELETEEEAMTVQADIIPSPTDTSCRQETPAFQTDTTPSETGATSTPEAIPALSETTPTVVGAVSAPAEANTPQDATSAPEETK
B7: sp¦P62995¦TRA2B_HUMAN (protein, UniProt P62995 2-288, looked up)
Transformer-2 protein homolog …: SDSGEQNYGERESRSASRSGSAHGSGKSARHTPARSRSKEDSRRSRSKSRSRSESRSRSRRSSRRHYTRSRSRSRSHRRSRSRSYSRDYRRRHSHSHSPMSTRRRHVGNRANPDPNCCLGVFGLSLYTTERDLREVFSKYGPIADVSIVYDQQSRRSRGFAFVYFENVDDAKEAKERANGMELDGRRIRVDFSITKRPHTPTPGIYMGRPTYGSSRRRDYYDRGYDRGYDDRDYYSRSYRGGGGGGGGWRAAQDRDQIYRRRSPSPYYSRGGYRSRSRSRSYSPRRY
B8: sp¦P41250¦GARS_HUMAN (protein, UniProt P41250 37-739, looked up)
Glycine--tRNA ligase: SAASCPPISLPAAASRSSMDGAGAEEVLAPLRLAVRQQGDLVRKLKEDKAPQVDVDKAVAELKARKRVLEAKELALQPKDDIVDRAKMEDTLKRRFFYDQAFAIYGGVSGLYDFGPVGCALKNNIIQTWRQHFIQEEQILEIDCTMLTPEPVLKTSGHVDKFADFMVKDVKNGECFRADHLLKAHLQKLMSDKKCSVEKKSEMESVLAQLDNYGQQELADLFVNYNVKSPITGNDLSPPVSFNLMFKTFIGPGGNMPGYLRPETAQGIFLNFKRLLEFNQGKLPFAAAQIGNSFRNEISPRSGLIRVREFTMAEIEHFVDPSEKDHPKFQNVADLHLYLYSAKAQVSGQSARKMRLGDAVEQGVINNTVLGYFIGRIYLYLTKVGISPDKLRFRQHMENEMAHYACDCWDAESKTSYGWIEIVGCADRSCYDLSCHARATKVPLVAEKPLKEPKTVNVVQFEPSKGAIGKAYKKDAKLVMEYLAICDECYITEMEMLLNEKGEFTIETEGKTFQLTKDMINVKRFQKTLYVEEVVPNVIEPSFGLGRIMYTVFEHTFHVREGDEQRTFFSFPAVVAPFKCSVLPLSQNQEFMPFVKELSEALTRHGVSHKVDDSSGSIGRRYARTDEIGVAFGVTIDFDTVNKTPHTATLRDRDSMRQIRAEISELPSIVQDLANGNITWADVEARYPLFEGQETGKKETIEE

Test system: human HL60 cells
Assay: SWATH-MS proteomics, differential protein representation, akirin2 KO vs WT HL60 cells
Format: cell-based
Details: akirin2 KO vs WT HL60 cells; sheet "Under-represented in KO"
Summary of the method: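 Three biological replicates per genotype; 150 µg protein FASP/trypsin digested; IDA library (3 µg digest); SWATH variable windows, 5 µg/sample, 3.6 s cycle; gradient 5–30% B 120 min then 30–60% B 15 min; 1% global FDR; TAS normalization.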

Row | Molecule | Fold Change | Log (Fold Change)
1 | B1 | 0.6845 | -0.1646
2 | B2 | 0.6821 | -0.1661
3 | B3 | 0.6832 | -0.1655
4 | B4 | 0.6852 | -0.1642
5 | B5 | 0.682 | -0.1662
6 | B6 | 0.6822 | -0.1661
7 | B7 | 0.3066 | -0.5134
8 | B8 | 0.6839 | -0.165
